Patent US20210122812A1 (Chugai, published 2021)

Experiments:
[1] = molecular target: T1, MRA-hIgA (human); assay: SPR (Biacore T200), antibody captured on Protein A/G, MRA-hIgA as analyte, 37 C, pH 7.4, 3 uM Ca, steady state affinity
T1 construct: also called human IgA; recombinant of human IgA
Protocol: (§1) Using Biacore™ T200 surface plasma resonance assay (GE Healthcare), the obtained antibodies were assessed for their binding activity to human IgA (dissociation constant KD (M)). The measurement was carried out using as a running buffer 0.05% Tween 20® (polyoxyethylene (20) sorbitan monolaurate), 20 mmol/l ACES, 150 mmol/l NaCl (pH 7.4 or pH 5.8) containing 3 μM or 1.2 mM CaCl₂, or 0.05% Tween 20®, 20 mmol/l ACES, 150 mmol/l NaCl (pH 8.0) containing 0.1 μM or 10 mM CaCl₂.
(§2) After an adequate amount of recombinant Protein A/G (Thermo Scientific) was immobilized onto the Sensor chip CM5 (GE Healthcare) by an amino coupling method, antibodies were allowed to bind onto the sensor chip. An appropriate concentration of MRA-hIgA (described in (1-1)) was injected as an analyte to interact with antibodies on the sensor chip. Then, the sensor chip was regenerated by injecting 10 mmol/l glycine-HCl, pH 1.5. The measurement was carried out at 37° C. From the assay result, the dissociation constant KD (M) was calculated based on curve-fitting analysis and equilibrium constant analysis using Biacore™ T200 Evaluation Software (GE Healthcare).

[2] = molecular target: T1, MRA-hIgA; assay: SPR (Biacore T200), antibody captured on Protein A/G, MRA-hIgA as analyte, 37 C, pH 7.4, 1.2 mM Ca, 1:1 binding model
Protocol: as §1, §2

[3] = molecular target: T2, GC-hIgA-FLAG (human); assay: SPR (Biacore T200), antibody captured on Protein A/G on a CM5 chip, monomeric IgA injected as analyte, 37 C, running buffer pH 7.4 with 1.2 mM Ca; response normalized to capture ligand = 100 RU; analyte concentration not given [i]
T2 construct: Recombinant human IgA with a FLAG tag, not treated with SPDP; also called unaggregated hIgA; unaggregated human IgA
T2 sequence (VH, as listed by the source, chain 1 of 2): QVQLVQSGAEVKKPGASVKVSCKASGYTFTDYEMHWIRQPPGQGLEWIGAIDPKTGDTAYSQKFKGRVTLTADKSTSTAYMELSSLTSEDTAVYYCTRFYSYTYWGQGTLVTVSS
T2 sequence (VL, as listed by the source, chain 2 of 2): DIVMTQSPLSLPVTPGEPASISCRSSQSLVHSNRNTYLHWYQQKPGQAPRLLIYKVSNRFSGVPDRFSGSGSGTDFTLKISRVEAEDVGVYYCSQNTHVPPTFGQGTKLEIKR
Protocol: The obtained antibodies were assessed for their binding to unaggregated hIgA and aggregated hIgA using Biacore™ T200 surface plasma resonance assay (GE Healthcare). The measurement was carried out using as a running buffer, 0.05% Tween 20®, 20 mmol/ACES, 150 mmol/l NaCl (pH 7.4 and pH 5.8) containing 3 μM or 1.2 mM CaCl₂.
After an adequate amount of recombinant Protein A/G (Thermo Scientific) was immobilized onto Sensor chip CM5 (GE Healthcare) by an amino coupling method, antibodies were allowed to bind onto the sensor chip. An appropriate concentration of hIgA (described in Example 1) was injected as an analyte to interact with antibodies on the sensor chip. Then, the sensor chip was regenerated by injecting 10 mmol/L Glycine-HCl, pH 1.5. The measurement was carried out at 37° C.

[4] = molecular target: T1, MRA-hIgA; assay: SPR (Biacore T200), antibody captured on Protein A/G, MRA-hIgA as analyte, 37 C, pH 5.8, 1.2 mM Ca, steady state affinity
Protocol: as §1, §2

[5] = molecular target: T1, MRA-hIgA; assay: SPR (Biacore T200), antibody captured on Protein A/G, MRA-hIgA as analyte, 37 C, pH 5.8, 3 uM Ca, steady state affinity
Protocol: as §1, §2

T1 sequence (VH, as listed by the source): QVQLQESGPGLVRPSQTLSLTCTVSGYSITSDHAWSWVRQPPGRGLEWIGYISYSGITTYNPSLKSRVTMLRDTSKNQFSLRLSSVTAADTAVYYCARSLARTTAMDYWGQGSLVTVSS

B1: GA2-IgG1 (antibody, V domains shown)
VH: QVQLVQSGAEVKKPGSSVKVSCKASGGTFSSYAISWVRQAPGQGLEWMGGIIPIFGTANYAQKFQGRVTITADESTSTAYMELSSLRSEDTAVYYCARPRWETAISSDAFDIWGQGTMVTVSS
VL: DIQMTQSPSSLSASVGDRVTITCRASQSISDDLNWYQQKPGKAPKLLIYEASNLQSGVPSRFSGSGSGTDFTLTISSLQPEDFATYYCQQHSSSPLTFGQGTKVEIKR
notes: also called anti-hIgA antibody; anti-human IgA antibody
For B1, the Kd [1] was 6.7 µM, the Kd [2] was 0.039 µM and the binding result [3] was “binds”. The Kd [4] was 4 µM and the Kd [5] was 5 µM.
